Data: PMC8456507

Target: rYY1 (UniProt Q00899 1-414)
Assay: pull-down

Sequence of rYY1 (Q00899 whole entry): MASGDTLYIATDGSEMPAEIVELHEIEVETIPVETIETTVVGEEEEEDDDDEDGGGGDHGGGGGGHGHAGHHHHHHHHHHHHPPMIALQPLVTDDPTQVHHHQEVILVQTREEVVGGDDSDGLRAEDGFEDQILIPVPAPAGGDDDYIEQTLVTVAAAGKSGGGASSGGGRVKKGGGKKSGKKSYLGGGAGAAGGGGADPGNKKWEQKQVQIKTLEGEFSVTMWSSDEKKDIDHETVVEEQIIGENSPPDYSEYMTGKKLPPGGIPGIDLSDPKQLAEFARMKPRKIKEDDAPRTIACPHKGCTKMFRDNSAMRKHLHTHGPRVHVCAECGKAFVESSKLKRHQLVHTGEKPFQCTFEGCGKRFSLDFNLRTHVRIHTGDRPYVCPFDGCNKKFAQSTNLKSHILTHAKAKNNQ

B1: NCR (dsDNA)
DNA 1: AGCTTAAGTAACGCCATTTTGCAAGGCA
DNA 2: TGCCTTGCAAAATGGCGTTACTTAAGCT
  binding result: binds

B2: NCRm (dsDNA)
DNA 1: AGCTTAAGTAATACGGCTATGCAAGGCA
DNA 2: TGCCTTGCATAGCCGTATTACTTAAGCT
  binding result: no binding
